US10336832

What was measured:
[1] = biological target: pKal catalytic domain Mutant 4 (human) (UniProt P03952); experiment: Ki,app, equilibrium, fluorogenic substrate
[2] = biological target: human plasma kallikrein (active form, purified from human plasma and activated with factor XIIa) (human) (UniProt P03952); experiment: ELISA, target/background
Sequence of human plasma kallikrein (active form, purified from human plasma and activated with factor XIIa) (human) (P03952 20-390 limits assumed, chain 1 of 2): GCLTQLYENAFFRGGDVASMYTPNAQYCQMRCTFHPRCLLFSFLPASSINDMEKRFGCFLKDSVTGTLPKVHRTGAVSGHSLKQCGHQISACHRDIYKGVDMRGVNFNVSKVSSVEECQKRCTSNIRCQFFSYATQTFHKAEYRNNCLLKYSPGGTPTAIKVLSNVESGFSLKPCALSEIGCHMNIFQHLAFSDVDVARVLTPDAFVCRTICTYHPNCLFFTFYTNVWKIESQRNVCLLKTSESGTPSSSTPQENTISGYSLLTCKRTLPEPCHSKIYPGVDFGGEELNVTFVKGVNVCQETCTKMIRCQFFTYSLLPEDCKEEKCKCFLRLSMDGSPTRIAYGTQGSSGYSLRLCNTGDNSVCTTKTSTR
Sequence of human plasma kallikrein (active form, purified from human plasma and activated with factor XIIa) (human) (P03952 391-638 limits assumed, chain 2 of 2): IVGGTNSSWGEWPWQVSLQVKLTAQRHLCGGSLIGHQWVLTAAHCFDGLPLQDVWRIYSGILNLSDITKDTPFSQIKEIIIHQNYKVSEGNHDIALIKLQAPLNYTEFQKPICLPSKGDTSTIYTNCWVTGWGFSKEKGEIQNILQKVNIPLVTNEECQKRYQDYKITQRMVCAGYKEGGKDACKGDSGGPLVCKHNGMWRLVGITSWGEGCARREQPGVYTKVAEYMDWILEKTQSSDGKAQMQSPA

Sequence of pKal catalytic domain Mutant 4 (human) (P03952 other isoform, or with tags, fused parts or gaps mutant): as the sequence (P03952 391-638 limits assumed, chain 2 of 2) above, with S7A, S8A counted along it

| Binder | Ki [1] | ELISA (T/B) [2] |
| --- | --- | --- |
| X101-A01 (antibody, V domains shown) VH: EVQLLESGGGLVQPGGSLRLSCAASGFTFSHYLMTWVRQAPGKGLEWVSYISPSGGHTIYADSVKGRFTISRDNSKNTLYLQMNSLRAEDTAVYYCARVARGIAARSRTSYFDYWGQGTLVTVSS VL: EIVLTQSPGTLSLSPGERATLSCRTSQFVNSNYLAWYQQKPGQAPRLLIYGASSRATGIPDRFSGSGSGTDFTLTISRLEPEDFAVYYCQQSSRTPWTFGQGTKVEIK | 0.25 nM |  |
| M28-F01 (Fab, V domains shown) VH: EVQLLESGGGLVQPGGSLRLSCAASGFTFSVYLMHWVRQAPGKGLEWVSGISPSGGYTQYADSVKGRFTISRDNSKNTLYLQMNSLRAEDTAVYYCARPGGLDAFDIWGQGTMVTVSS VL: DIQMTQSPSSLSASVGDRVTITCRASQSINTYLNWYQQKPGKAPKVLIHAASTLESGVPSRFSGSGSGTDFTLTISSLQPEDFATYYCQQSYSTPPTFGQGTKVEIK |  | 1.5 |
| M29-E02 (Fab, V domains shown) VH: EVQLLESGGGLVQPGGSLRLSCAASGFTFSRYPMMWVRQAPGKGLEWVSVIYPSGGDTFYADSVKGRFTISRDNSKNTLYLQMNSLRAEDTAVYYCASGDDYLWEAAVYWGQGTLVTVSS VL: QSVLTQPPSVSEAPRQRVTISCSGSSSNIGNNAVSWYQQLPGKAPKLLIYYDDLLPSGVSDRFSGSKSGTSASLAISGLRSEDEADYYCAAWDDSLNGFVFGTGTKVTVL |  | 2 |
